Experimental data reported in article PMC11634010.

Target: 92BR020 SOSIP gp140 trimer (stabilized pre-fusion HIV-1 envelope glycoprotein, SOSIP v.7) (HIV-1 subtype B strain 92BR020)
Experiment: negative-stain electron microscopy; SOSIP proteins diluted in Tris-buffered saline to ~0.02 mg/mL, adsorbed onto carbon-coated copper grids, stained with 2% uranyl formate; 2D classification compared with published well-folded SOSIP trimers

## 92BR020 SOSIP gp140 trimer (stabilized pre-fusion HIV-1 envelope glycoprotein, SOSIP v.7) (natural protein)
  stoichiometry N: 3
